In paper PMC9241815, “Role of the Two-Component System CiaRH in the Regulation of Efflux Pump SatAB and Its Correlation with Fluoroquinolone Susceptibility”:

Key:
[1] = target: SatR (Streptococcus suis (WT strain, name not in the material)) (UniProt G9CHX9); assay: BLI; conditions: EMSA: Beyotime EMSA binding buffer, 20 min, room temperature, 4% native PAGE; proteins dialyzed in 25 mM Tris pH 7.4, 150 mM NaCl, 5% glycerol, 0.5 mM EDTA …
[2] = target: CiaR, phosphorylated (Streptococcus suis (WT strain, name not in the material)) (UniProt A0A0H3MUU9); assay: BLI; conditions: EMSA: Beyotime EMSA binding buffer, 20 min, room temperature, 4% native PAGE; proteins dialyzed in 25 mM Tris pH 7.4, 150 mM NaCl, 5% glycerol, 0.5 mM EDTA …
[3] = target: T1, SatR (Streptococcus suis (WT strain, name not …, UniProt G9CHX9 1-149)); assay: EMSA; 200-800 ng SatR; EMSA: Beyotime EMSA binding buffer, 20 min, room temperature, 4% native PAGE; proteins dialyzed in 25 mM Tris pH 7.4, 150 mM NaCl, 5% glycerol, 0.5 mM EDTA, 1 mM DTT; BLI (Octet RED96) conditions not in material; conditions: protein: recombinant; tags: C-terminal 6xHis (from primer; pET-30a(+)); chain copies: 2; label: biotin 3' end; blunt
[4] = target: T1, SatR; assay: EMSA; 800 ng SatR; EMSA: Beyotime EMSA binding buffer, 20 min, room temperature, 4% native PAGE; proteins dialyzed in 25 mM Tris pH 7.4, 150 mM NaCl, 5% glycerol, 0.5 mM EDTA, 1 mM DTT; BLI (Octet RED96) conditions not in material; conditions: protein: recombinant; tags: C-terminal 6xHis (from primer; pET-30a(+)); chain copies: 2; label: biotin 3' end; blunt

## satAB promoter (Octet)
[1]
  Kd: 61 nM
[2]
  Kd: 434 nM

B1: satRAB promoter EMSA probe (dsDNA)
DNA 1: TTGACAATAGTTCTTAAGAGAACTATAATAGTTCTCATGGTAATTATTTTCGTAGAAAG
DNA 2: CTTTCTACGAAAATAATTACCATGAGAACTATTATAGTTCTCTTAAGAACTATTGTCAA
[3]
  binding result: binds

B2: satAB internal fragment (EMSAneg-satR) (dsDNA)
DNA 1: CTCGCTTGGCCTTGGTGACCATTGCTTCTACGCCAGTTGCCTTGATTGCCTTGGTCGTT
DNA 2: AACGACCAAGGCAATCAAGGCAACTGGCGTAGAAGCAATGGTCACCAAGGCCAAGCGAG
[4]
  binding result: no binding
